According to PMC12270679 (2025):

Biological target: Unp-CTD (Saccharomyces cerevisiae, synthetic peptide, N-terminal FAM label, unphosphorylated; consensus RNAPII Rpb1 CTD heptad x3)
Assay: FP; unphosphorylated CTD peptide

B1: MBP-Asr1 (natural protein)
chain: MEECPICLADDQEGEQFGCLNVCGHKFHLNCIREWHKYSINLKCPICRVESTHLEVGEGQHALSINLKMGFMIKNAIDYVGAETTNERNEDDTGEQDQEIEFLSERLRGTLVMDTIKIIQCSICGDTDVSRLSLYCQDCEAIYHETCLRGLACEVGDRNTWQECTDCRSNALLELRMGAISSQLASYDSRNSMIFAGELRDKHSVKTQQMYEQIRNAKHKIQMHVRRALDRYPLPLLRFKDAYKHVNKQVSRKLYRLSDNKYLPDQYDYDSLARTGVHTELLIYCHDE
  Kd: 4.06 mM
